These results are taken from the NTF2 design screens of Basanta et al. (2020).

The data set can be described thus: protease stability score; higher = more stable; yeast display proteolysis, trypsin and chymotrypsin.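 Note: relative to predicted unfolded state with 0 unfolded-like and 1 meaning tenfold more protease.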
As to “DEEEEDSEDAVRFIMLALDTGDEKLLTSLADPNMRLDVNGREFHGREDFIHFLEEVRKKLGVDRIRTHVRETHVINGRVHVRGELRWNGRTHESHVHIIKIDGKWVIKSVHIR”, the protease stability score was determined as 2.11.
The sequence “DEEEEDVRRAVEIWERSLRTGDEHEVKRFVDPHTRLEVDGREFHGREQFIEVMRHWRFRHFQIRDFRVIDGRADVDAISEVDYNGRRFEVKTIIIVIKINGRWVLHSLNIR” displayed a protease stability score of 1.63.
The value for “DEEEEEAHTITEILVHDWRTGNEEHLVKLIDPNARINYNGVNLHGMKAVSIILHHIRYKDVSLHEVRVFDGQVEIILKIHVNINGQDETHHTHIVLSKVNGRWLIDTIKWE” was 1.28.
“DEEEEEARIAVDMFRRTVETGDEELLRKMIDPHVRMHVGDKDLHGRDFAVEIFHKLGVDHFEIRHQRLIGDKVELDIKVNVNGKEMETHSHLEKVNGRWVIRSLDVR” returned a protease stability score of 1.25.
The value for “DEEEEEDKRMADEIVHSFLTGNEDWLHELADPNTRSEVGDKEAHGRENMVKLLRIHLRELGVDHIELTHVRVHSQGDKIIVIVHGKVKIGDKILELHIHIIVLKIDGRWLLHSVRIEIN” was 1.09; that for “DEEEEEDRHAAEITIKVLLTGDEKKLQELADPHTRFIIWIDGRELRYIGRRDLVRVWREIIRKLGIDHLSLDDMRVIDGKIHLHETMNVDGKNISRRIINNVINGVNKHIEVNLS” was 1.17.
For the sequence “DEEEEEHRIAHELFIKTSQTGDEQESTEMMDPNVRVTIGNKHFVGREEVSKFFKEIRIKRVRFKRIRHINGKAEMEMHMHGEVNGRERELEIHVYIFKINGRWVIEEVRFH”, the protease stability score stood at 1.64.
Turning to “DEEEEEILRVWEILIHLFVTGDEEKFSKMADPDYKWHQGDKSRIGRESMREHIKKFLEELRIKELHLHHTHVFDGRYEADVELRGHINGRESRIKSRIILEVYNGRVKLFIIDIR”, the protease stability score came to 0.559.
The result for “DEEEEELHRLSRLILHLLLTGDWEKLADLADPHMRFEMVVGDKNEEFHGRERWLKFLRMVREKFKGMRIHLQDERVYGDKNDLDIVLNVNGQRHKVHLHLVVVDGVIKEIKIKVE” reads 2.18.
The sequence “DEEEEELKQHLHEILHSIMTGDWRSLRHLIDPNVRLDIGDKTYHGREDFLTWVKHLIDKIPNVKFEIKHIRIVGEKVIMNIVVKINGVEHTRHLIADKIDGKWFISSTEVH” gave a protease stability score of 1.76.
The value for “DEEEEELRELARISLELWITGDEDHLRHLMDPRTLLIVDGQEVHGREEAIKWVAFHLLKIKGLTLELKDFDVINGRLHLHVTRRVNGVRRRLRIHIEIIDGRIKTIRITID” was 2.28; that for “DEEEEELRRLLEEIFRNRVTGDEERWLELADPDVRLEEHINGQEIHLHGREDVAEHIREARIHSTEVKDVKVINGVIHLDEKIDGIINGVRRDTRVIVHIVVINGRIKSIRVIVN” was 1.65.
The sequence “DEEEEEMHRRARIFLELWMTGNEEVFNTLFDPNVRLHMNIGEKTHDFVGRETVHEVNRRWLEHIRIEDFKVREIRVQGDYATSDTRIVGIFDGRRIDIDVKIHILIVDGRLKEVELRFD” gave a protease stability score of 2.1.
The value for “DEEEEEMRKMIDEILKDQATGDEDRLKKLLDPNMRSEINGKDLHGREIVTETLAHLFRFLGIKHVHLNDYRIQGDKVEIYGELEINGQKHTNKIHAEKVNGKWVISEMRLH” was 1.43; that for “DEEEEERRRIAKELTHLWHTGDEDRLIEMADPNDRILIGDFDIHGWESAMRFLRYFRREFGVKHEEIKDIEIQGEKTHIHSHLKVGDKRHHVLVILVVINGRHKRIEIRIH” was 0.755; that for “DEEEEESHEATEMILYAHKTGDFDLWEKLADPHVRLDVNGVHVHGREEYVRIMRHIHKNWGVQRFHVEFHDLELQGEKVRVRLRSNFNGRHHTETIIIEKINGRWYLKTRRIT” was 1.42.
The value for “DEEEEESKQVAELIITLLTTGDEERFLELADPNVRHHQGDKELHGREDLHKTVEDWGWSKVDSRLEDVEVQGEFVIVRGKMIVNGRRVDVEYIVRKVDGRWYIHMVIYH” was 1.07.
“DEEEEETHEYMRLLVRLFLTGDEEVFDRLADPNRRLKWNGREYHGREQTNRVWRELGVKHRRIEDIKMQGDKVVIEGTVHIGDKTLRTTVSFVIIDGRTKSIEIRDI” had a protease stability score of 1.46.
The result for “DEEEEEVKKVFEMLEKSLETGDEKLWEHMADPNTRIDIGDKEIHGRESFHEIVKHIRIKDIRMRIHEWRTYDGRLDLRGQVELHLNINGKHLDITVEHRLIIVKINGRWLLEEETIV” reads -0.109; that for “DEEEEEVRKLAHIHLHWLKTGDEEFEKKYADPHTKFRFNGRSSHGMEDFAEWVREIRIHDVIIRRVRVVNGVNEIDMEVDFEFDGKRIRSQTQILLFIYDGRIKSTEFTIR”, 0.805; that for “DEEEEEWERIARRLVKAWLTGDEDLLSFLADPHVRLHVGDKHNHGREHVERHWKEYLDRVKNVRIHVHHVEIQGEKIIIHVEVEINGRTFNMRVIIIVINGRIKEIVIHIH”, 0.635.
The sequence “DEEEEFAKELIEEVTKTILTGDFRTFLELFDPNARLEFNGREIHGMEDWLKMMDELRREIWIHHNHNHRIEVQGDKAHTESRLDVSYNGQRYTLHSRLSIDVVDGRLKRLEYRTK” gave a protease stability score of 1.5.
Sequence “DEEEEFATRIMKILLKALLTGDETTLKHLIDPHTRFIFVIGEKIVHVHGRDEIAKFWETLRREIRIEDITIDRIRVQGEKVETDGYIHIWIGDKLVDVESHDEWVIVNGRIKHIRMEIK” yielded a protease stability score of 1.93.
The value for “DEEEEFLHTLLRIFVEALMTGDEELLKKLADPHTKVRFNGQERHGWHAIQWMIEFFKNVRIEIHDMHIQGDKVHIDGRLKQGDKKLEMRIIIVIVNGKVHNEEYDLR” was 1.12.
“DEEEEFLRLILETLRHAAETGDWHILNRLLDPDARIVIGDKEIHGREKVQHEFRRIDHYQWHHIILDRVHIYDGRIELHGQVEEELNVDGQRIRRLTDTHFVIVKVDGQWKIHTIEIR”: the protease stability score worked out at 2.22.
With “DEEEEFQRELVKLLVEWVHTGDWEHISKYADPHVKVHVDGRDSIGREEMRKTLKRFSDLLGADHIRFEHVRIIDGRVTIHSRVEYGDKEHHIIIQSSKIDGRWYLHSVDIR”, the protease stability score was determined as 0.995.
The result for “DEEEEFYEKMFRLWFELLLTGDESTLIKLLDPHVRIDFNGRELIGWFYLSHFMREFRHRFDHVEIIIRRVTVIDGVARSDLELRVNINGKDHTVKTEVHIRVVNGRMKSLEFHIK” reads 0.965; that for “DEEEEHAEHMLRLWFHILHTGDWEDLVRLIDPNARLRVGDKTFHGMERLVRRHLEHKRRLGLDNFDFQVDNFEVYGDKIDIDVTENINGREYKVIIHIIVINGRVKNMHIKIN”, 0.925.
Take “DEEEEHAITFMKILIHLWITGDWETLKRLADPDTKVIERFNGKRVEIHGRELWSKIRKEIIDQLRIRIHPHHVSVVGDKLYSDEHLVFHYNGRDIRLDIHLEMVVVNGRMKHFRFHEE”: the protease stability score was 1.06.
Regarding “DEEEEHFKWLVKLIFDAYLTGDEEVLYERADPNVRIDFNGVELHGREEMQRHLEHLMKKFKGLRIELKHFHIQGDKMFFQTEYRYNGKTVEARLFFDVVNGRLKRIIIEHR”, the protease stability score was 1.48.
“DEEEEHFRRLLERFLHFWRTGDEDDYHKLADPHARSEVIIGDFRIESHGRHALEIWLRYMGIDHIHLEDSDSQGNKVHVHMHVKVGDKEHHVIIILIVIDGRVHQLTISVRRT” registered a protease stability score of 1.13.
The sequence “DEEEEHLHSVAKRFLHSVETGDWKDLYELLDPHARFESVFNGRKVEHHGREEARKWFQEWVERFKNMRLHIEEVRTQGDKTHVDSRVHYGDKTINTIIHIVIVNGKVHHVEIRVK” came in with a protease stability score of 2.2.
“DEEEEHLRKIMEEMTRANETGDFESWARNADPDYQLNVGDKRKHGREDWQEDLKRVDHLRLEVRIRRMRDVDGRIEVVGDLIIFIKVGEYEFESHSKVIIYIIKINGRWFIKSIEFL” displayed a protease stability score of 1.
The sequence “DEEEEHLRKMTKLLWDQIHTGDEKDFLRLADPNARFEVEINGRKYEAHGREEIKHMLHDILELLGIDHVRLRDLELQGNKVILHSDTHVNGQDSKMRIEILIVNGRLKSFKIQTL” displayed a protease stability score of 0.995.
In turn, “DEEEEHLRTMWEIWMHALRTGDEDFMTNLADPNVRVLILQGDKEEESHGRDELSRLLREIRIEEFTITDVRIQGDKSEADVHVVGQIDGRRTRTKIRISFIIFNGRLHSIRFEIH” showed a protease stability score of 2.2.
The value for “DEEEEHMKHHLDLWIKLVQTGNEEHIARMIDPNARFDINGKEEHGRESFRKHLHEILKFFGVDRFHHEIKELRVIDGRVHSVTLWEINGQRLDTRIHAHKVNGVWLVHSLEIK” was 1.14.
For the sequence “DEEEEHMRKMHEKFRKIRHTGNFEDYFRLLDPNARMHVNGQNMHGRDVVSKWFKHFVEEIRIEHFEIHDVKYIDGRSHEDGWLVGTIDGKHFDSRTEIILIVVDGKLKQFHIHIR”, the protease stability score worked out at 0.489.
The result for “DEEEEHSKKMTDWWLHAVLTGDEEKLRQMIDPDVKLHINGKDHVGREEAVKSLRELLHRLGVNHIHVERMDVVGDKVILNFHLRVGDKEHETRVILHIYNGRIKEIRIHIH” reads 2.16; that for “DEEEEHSKLADEEMLHNLLTGNEEHINKMADPNVRIVIGDKELHGMERWREEMRFFKGARIEIKRSRIFTQGDKMHSEVDGTLNFNGRRVEILIVLVVRKVNGRWRIEMISYHIV”, 1.57.
The sequence “DEEEEHSKNFLRLWINLWLTGDWRNLLKLADPNAKVVINGVRIHGMEFLVRLLHEEMEQVKNMRIHIHDRRLQGDKSTEILILHFDGVFYETRFHIDIVNGKVRRFQEERE” registered a protease stability score of 0.181.
For the sequence “DEEEEHWKHIAKEYLDNFRTGDWKNFMDNADPDYRFILSQGNKEDNHHGMHFFVEWILRFLKKFKNATFVLRHFSIQGNKIHMELDITVGDKRIDTKINIEIIDGVVHTIEIRLD”, the protease stability score came to 0.821.
In the case of “DEEEEIAHEMVRELVKVLETGDEEIWERLMDPNDRIHIGDKNLVGMDETRKWINEFMERIDHIRVRVRSIHPVDGRANLDTEITTHYNGRTTTYKVLLIVVKVNGRWVLESMHIK”, the protease stability score is 1.93.
The value for “DEEEEIARKYITLLVKSFLTGDERSIERLVDPHYRHDVGDKHVHGRERFTRHIYENLIRVKGIRVEVIVEHIRVINGRVEVDMQIHWKQGEFQILITSRMHVEKVDGRWLIREVEID” was 0.976.
Regarding “DEEEEIARRIFKIFVHNVLTGDEDSLRKMIDPNTRLHVDGQELHGREQALTFLHEMRIDHMELRELRVIDGRIISHIRVDGEINGRRRDIQTEIILYKVDGRWVIRQMRFQ”, the protease stability score was 2.39.
In turn, “DEEEEIARRITELWLTYMMTGDEDALIHMADPNVKSILIINGRHVHYHGREYWTKMLRDLGFKHTRIRRVDLQGDYSRLDIEDDFNGVYTRSELRLKVVNGRFHTIEINIH” displayed a protease stability score of 1.08.
The value for “DEEEEIFRHLFKLFVDATETGDEHILKELLDPHTRIHVNGQDFHGRENAIHFWRHMRIDEIRLKEIEVQGDKIHITGHVRGQIDGQQVRTDFELIMVKIDGRWKIHSEIYH” was 2; that for “DEEEEIIKEQLRILKKNLETGDWKAVLKMFDPNVREDVNGQTLIGRELWAQIFVEMGVDHIIERRVDIQGDKIRLYGQLDQGDKKHTTHIHARKVDGRWTFESVHVR” was 1.08.
